Data taken from paper PMC8673607, “ENAP1 retrains seed germination via H3K9 acetylation mediated positive feedback regulation of ABI5” (PLoS Genetics, 2021).

Target: T1, His-ABI5 (Arabidopsis, UniProt Q9SJN0 1-442)
T1 construct: ABI5, Arabidopsis, AT2G36270; CDS ligated to pET28a; source: E. coli, purified (Ni-NTA agarose)
T1 sequence (looked up): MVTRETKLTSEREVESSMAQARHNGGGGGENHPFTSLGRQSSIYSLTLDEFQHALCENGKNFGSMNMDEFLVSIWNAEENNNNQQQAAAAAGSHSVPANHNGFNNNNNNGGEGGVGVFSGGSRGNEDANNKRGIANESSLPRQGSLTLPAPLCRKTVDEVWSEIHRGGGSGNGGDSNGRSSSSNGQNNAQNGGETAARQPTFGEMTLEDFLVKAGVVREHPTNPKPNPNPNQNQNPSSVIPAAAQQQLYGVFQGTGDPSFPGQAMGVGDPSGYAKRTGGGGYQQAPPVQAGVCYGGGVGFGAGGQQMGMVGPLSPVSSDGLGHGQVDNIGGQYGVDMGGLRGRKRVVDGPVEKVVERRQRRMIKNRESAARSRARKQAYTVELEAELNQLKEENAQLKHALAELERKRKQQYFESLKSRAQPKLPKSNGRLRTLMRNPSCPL
Test: pull-down; His-ABI5 purified with Ni-NTA agarose incubated with dialyzed MBP fused proteins 1h at 4°C; column buffer 20 mM Tris-HCl pH 7.4, 0.2 M NaCl, 1 mM EDTA; blots with anti-His and anti-MBP
Details: both partners purified

B1: MBP-ENAP1 (natural protein, Arabidopsis, UniProt Q8VZI9 1-249, looked up)
chain: METTPETQSKTHRLPAGREDWWSEDATATLIEAWGDRYVNLNRGNLRQNDWKEVADAVNSSHGNGRPKTDVQCKNRIDTLKKKYKTEKAKPLSNWCFFDRLDFLIGPVMKKSSGAVVKSALMNPNLNPTGSKSTGSSLDDDDDDDDDDEEDDDDAGDWGFVVRKHRKVEDVDSSEGSAFRELARSILKLGEAFERIEGKKQQMMIELEKQRMEVAKELELQRMNMLMEMQLELEKSKLGKRRAASGKKL
notes: ENAP1, Arabidopsis, At3G11100; CDS ligated to pVP13 (Gateway vector, His tag removed); source: E. coli, purified (amylose resin, eluted with maltose, dialyzed)
binding result: binds
